Key:
[1] = molecular target: Alexa647-conjugated rHuVEGF (Invitrogen Cat #PHG0143) (human, UniProt P15692-4 27-191, limits assumed, Alexa647-conjugated); experiment: flow cytometry, surface-bound antibody on 293c18 cells, 3 nM Alexa647-rHuVEGF; design: reference not given here
Method: Data were gathered by way of flow cytometry using a DakoCytomation CyAn ADP flow cytometer and was analyzed using Treestar's FloJo analysis program.

[2] = molecular target: T1, human VEGF-A residues 27-191 of Accession #AAV38412 (human, UniProt P15692 27-191); experiment: BIAcore SPR [continued]
T1 construct: range 27-191
Method: (§1) The binding kinetics and affinity of the antibodies for VEGF (human VEGF-A residues 27-191 of Accession #AAV38412) was determined by using a BIAcore T200 surface plasmon resonance system (BIAcore, GE Healthcare, Piscataway, N.J.). Coupling running buffer was HBS-EP+ running buffer (10 mM HEPES, 150 mM sodium chloride, 3 mM EDTA 0.05% P-20, pH 7.4); assay running buffer was HBS-EP+ with 300 mM sodium chloride and 0.1 mg/mL BSA (Sigma A7906). Polyclonal goat anti-human Fc (Thermo Scientific prod#31125) was first immobilized to the biosensor surface in 10 mM sodium acetate, pH 4.5 using standard BIAcore amine coupling reagents (N-ethyl-N′-dimethylamino-propylcarbodiimide, EDC; N-hydroxysuccinimide, NHS; and ethanolamine HCl, pH 8.5). For binding kinetics assay a series of cycles were performed, each cycle consisted of 1) mAb capture, 2) Ag or buffer injection, 3) dissociation phase and 4) regeneration. Briefly, anti-VEGF antibodies were captured on parallel surfaces at a low flow rate of 10 μL/min. Capture levels were kept low to minimize avidity due to the dimeric nature of VEGF. No capture of the antibody was made on the reference surface to serve for primary referencing and as a negative control. Subsequently, VEGF or buffer only was injected to all flow cells at a flow rate of 80 μL/min for three minutes to monitor association followed by a 20-minute flow of assay rinning buffer at a flow rate of 80 μL/min to monitor dissociation. […] At the end of each cycle the surface was regenerated with 10 mM glycine, pH 1.5 at a flow rate of 60 μL/min in pulses of 60 and 10 sec. Binding data were fit to the 1:1 Langmuir model with mass transport term included using Biacore T200 Evaluation Software to determine the binding constants.

[3] = molecular target: T1, human VEGF-A residues 27-191 of …; experiment: BIAcore SPR, KD WT/KD mutant [continued]
Method: as §1

[4] = molecular target: T1, human VEGF-A residues 27-191 of …; experiment: SS DLL4-VEGF DVD-Ig format; BIAcore by paragraph 262
Method: as §1

T1 sequence (P15692 other isoform, or with tags, fused parts or gaps limits assumed): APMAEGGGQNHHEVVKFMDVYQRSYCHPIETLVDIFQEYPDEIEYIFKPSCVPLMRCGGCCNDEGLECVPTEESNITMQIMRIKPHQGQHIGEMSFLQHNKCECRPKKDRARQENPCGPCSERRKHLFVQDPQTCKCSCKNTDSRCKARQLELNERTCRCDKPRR
Chain of Alexa647-conjugated rHuVEGF (Invitrogen Cat #PHG0143) (P15692 other isoform, or with tags, fused parts or gaps limits assumed): as above

| Binder | MFI [1] | Kd [2] [nM] | koff [2] [s⁻¹] | kon [2] [M⁻¹ s⁻¹] | affinity improvement [3] [fold] | Affinity relative to WT [4] [fold] |
| --- | --- | --- | --- | --- | --- | --- |
| VL T51A (antibody, V domains shown) VH: EVQLVESGGGLVQPGGSLRLSCAASGYTFTNYGMNWVRQAPGKGLEWVGWINTYTGEPTYAADFKRRFTFSLDTSKSTAYLQMNSLRAEDTAVYYCAKYPHYYGSSHWYFDVWGQGTLVTVSS VL: DIQMTQSPSSLSASVGDRVTITCSASQDISNYLNWYQQKPGKAPKVLIYFASSLHSGVPSRFSGSGSGTDFTLTISSLQPEDFATYYCQQYSTVPWTFGQGTKVEIKR | 296 | – | – | – | – | – |
| H97 A (SS DLL4-VEGF DVD-Ig) (bispecific antibody, also called SS DLL4-VEGF DVD-Ig variant H97A) VH: EVQLVESGGGLVQPGGSLRLSCAASGFTFSNFPMAWVRQAPGKGLEWVATISSSDGTTYYRDSVKGRFTISRDNAKNSLYLQMNSLRAEDTAVYYCARGYYNSPFAYWGQGTLVTVSSASTKGPEVQLVESGGGLVQPGGSLRLSCAASGYTFTNYGMNWVRQAPGKGLEWVGWINTYTGEPTYAADFKRRFTFSLDTSKSTAYLQMNSLRAEDTAVYYCAKYPAYYGSSHWYFDVWGQGTLVTVSS VL: DIQMTQSPSSLSASVGDRVTITCRASEDIYSNLAWYQQKPGKAPKLLIYDTNNLADGVPSRFSGSGSGTDFTLTISSLQPEDFATYYCQQYNNYPPTFGQGTKLEIKRTVAAPDIQMTQSPSSLSASVGDRVTITCSASQDISNYLNWYQQKPGKAPKVLIYFTSSLHSGVPSRFSGSGSGTDFTLTISSLQPEDFATYYCQQYSTVPWTFGQGTKVEIK | – | 5.03 | 0.000269 | 53600 | 1 | – |
| H97 F (SS DLL4-VEGF DVD-Ig) (bispecific antibody, also called SS DLL4-VEGF DVD-Ig variant H97F) VH: EVQLVESGGGLVQPGGSLRLSCAASGFTFSNFPMAWVRQAPGKGLEWVATISSSDGTTYYRDSVKGRFTISRDNAKNSLYLQMNSLRAEDTAVYYCARGYYNSPFAYWGQGTLVTVSSASTKGPEVQLVESGGGLVQPGGSLRLSCAASGYTFTNYGMNWVRQAPGKGLEWVGWINTYTGEPTYAADFKRRFTFSLDTSKSTAYLQMNSLRAEDTAVYYCAKYPFYYGSSHWYFDVWGQGTLVTVSS VL: DIQMTQSPSSLSASVGDRVTITCRASEDIYSNLAWYQQKPGKAPKLLIYDTNNLADGVPSRFSGSGSGTDFTLTISSLQPEDFATYYCQQYNNYPPTFGQGTKLEIKRTVAAPDIQMTQSPSSLSASVGDRVTITCSASQDISNYLNWYQQKPGKAPKVLIYFTSSLHSGVPSRFSGSGSGTDFTLTISSLQPEDFATYYCQQYSTVPWTFGQGTKVEIK | – | 11 | 8.15e-05 | 7210 | 0.8 | – |
| N31 W (SS DLL4-VEGF DVD-Ig) (bispecific antibody, also called SS DLL4-VEGF DVD-Ig variant N31W) VH: EVQLVESGGGLVQPGGSLRLSCAASGFTFSNFPMAWVRQAPGKGLEWVATISSSDGTTYYRDSVKGRFTISRDNAKNSLYLQMNSLRAEDTAVYYCARGYYNSPFAYWGQGTLVTVSSASTKGPEVQLVESGGGLVQPGGSLRLSCAASGYTFTWYGMNWVRQAPGKGLEWVGWINTYTGEPTYAADFKRRFTFSLDTSKSTAYLQMNSLRAEDTAVYYCAKYPHYYGSSHWYFDVWGQGTLVTVSS VL: DIQMTQSPSSLSASVGDRVTITCRASEDIYSNLAWYQQKPGKAPKLLIYDTNNLADGVPSRFSGSGSGTDFTLTISSLQPEDFATYYCQQYNNYPPTFGQGTKLEIKRTVAAPDIQMTQSPSSLSASVGDRVTITCSASQDISNYLNWYQQKPGKAPKVLIYFTSSLHSGVPSRFSGSGSGTDFTLTISSLQPEDFATYYCQQYSTVPWTFGQGTKVEIK | – | 13 | 6.92e-05 | 5500 | 0.9 | – |
| S100a A (SS DLL4-VEGF DVD-Ig) (bispecific antibody, also called SS DLL4-VEGF DVD-Ig variant S100aA) VH: EVQLVESGGGLVQPGGSLRLSCAASGFTFSNFPMAWVRQAPGKGLEWVATISSSDGTTYYRDSVKGRFTISRDNAKNSLYLQMNSLRAEDTAVYYCARGYYNSPFAYWGQGTLVTVSSASTKGPEVQLVESGGGLVQPGGSLRLSCAASGYTFTNYGMNWVRQAPGKGLEWVGWINTYTGEPTYAADFKRRFTFSLDTSKSTAYLQMNSLRAEDTAVYYCAKYPHYYGASHWYFDVWGQGTLVTVSS VL: DIQMTQSPSSLSASVGDRVTITCRASEDIYSNLAWYQQKPGKAPKLLIYDTNNLADGVPSRFSGSGSGTDFTLTISSLQPEDFATYYCQQYNNYPPTFGQGTKLEIKRTVAAPDIQMTQSPSSLSASVGDRVTITCSASQDISNYLNWYQQKPGKAPKVLIYFTSSLHSGVPSRFSGSGSGTDFTLTISSLQPEDFATYYCQQYSTVPWTFGQGTKVEIK | – | 11 | 0.000124 | 11700 | 0.8 | – |
| S100a T (SS DLL4-VEGF DVD-Ig) (bispecific antibody, also called SS DLL4-VEGF DVD-Ig variant S100aT) VH: EVQLVESGGGLVQPGGSLRLSCAASGFTFSNFPMAWVRQAPGKGLEWVATISSSDGTTYYRDSVKGRFTISRDNAKNSLYLQMNSLRAEDTAVYYCARGYYNSPFAYWGQGTLVTVSSASTKGPEVQLVESGGGLVQPGGSLRLSCAASGYTFTNYGMNWVRQAPGKGLEWVGWINTYTGEPTYAADFKRRFTFSLDTSKSTAYLQMNSLRAEDTAVYYCAKYPHYYGTSHWYFDVWGQGTLVTVSS VL: DIQMTQSPSSLSASVGDRVTITCRASEDIYSNLAWYQQKPGKAPKLLIYDTNNLADGVPSRFSGSGSGTDFTLTISSLQPEDFATYYCQQYNNYPPTFGQGTKLEIKRTVAAPDIQMTQSPSSLSASVGDRVTITCSASQDISNYLNWYQQKPGKAPKVLIYFTSSLHSGVPSRFSGSGSGTDFTLTISSLQPEDFATYYCQQYSTVPWTFGQGTKVEIK | – | 7.6 | 7.33e-05 | 9630 | 1.2 | – |
| T30 W (SS DLL4-VEGF DVD-Ig) (bispecific antibody, also called SS DLL4-VEGF DVD-Ig variant T30W) VH: EVQLVESGGGLVQPGGSLRLSCAASGFTFSNFPMAWVRQAPGKGLEWVATISSSDGTTYYRDSVKGRFTISRDNAKNSLYLQMNSLRAEDTAVYYCARGYYNSPFAYWGQGTLVTVSSASTKGPEVQLVESGGGLVQPGGSLRLSCAASGYTFWNYGMNWVRQAPGKGLEWVGWINTYTGEPTYAADFKRRFTFSLDTSKSTAYLQMNSLRAEDTAVYYCAKYPHYYGSSHWYFDVWGQGTLVTVSS VL: DIQMTQSPSSLSASVGDRVTITCRASEDIYSNLAWYQQKPGKAPKLLIYDTNNLADGVPSRFSGSGSGTDFTLTISSLQPEDFATYYCQQYNNYPPTFGQGTKLEIKRTVAAPDIQMTQSPSSLSASVGDRVTITCSASQDISNYLNWYQQKPGKAPKVLIYFTSSLHSGVPSRFSGSGSGTDFTLTISSLQPEDFATYYCQQYSTVPWTFGQGTKVEIK | – | 16 | 0.000143 | 9120 | 0.8 | – |
| T 28 D (bispecific antibody, also called SS DLL4-VEGF DVD-Ig variant T28D) VH: EVQLVESGGGLVQPGGSLRLSCAASGFTFSNFPMAWVRQAPGKGLEWVATISSSDGTTYYRDSVKGRFTISRDNAKNSLYLQMNSLRAEDTAVYYCARGYYNSPFAYWGQGTLVTVSSASTKGPEVQLVESGGGLVQPGGSLRLSCAASGYDFTNYGMNWVRQAPGKGLEWVGWINTYTGEPTYAADFKRRFTFSLDTSKSTAYLQMNSLRAEDTAVYYCAKYPHYYGSSHWYFDVWGQGTLVTVSS VL: DIQMTQSPSSLSASVGDRVTITCRASEDIYSNLAWYQQKPGKAPKLLIYDTNNLADGVPSRFSGSGSGTDFTLTISSLQPEDFATYYCQQYNNYPPTFGQGTKLEIKRTVAAPDIQMTQSPSSLSASVGDRVTITCSASQDISNYLNWYQQKPGKAPKVLIYFTSSLHSGVPSRFSGSGSGTDFTLTISSLQPEDFATYYCQQYSTVPWTFGQGTKVEIK | – | – | – | – | – | 0.8 |
| T 28 W (bispecific antibody, also called SS DLL4-VEGF DVD-Ig variant T28W) VH: EVQLVESGGGLVQPGGSLRLSCAASGFTFSNFPMAWVRQAPGKGLEWVATISSSDGTTYYRDSVKGRFTISRDNAKNSLYLQMNSLRAEDTAVYYCARGYYNSPFAYWGQGTLVTVSSASTKGPEVQLVESGGGLVQPGGSLRLSCAASGYWFTNYGMNWVRQAPGKGLEWVGWINTYTGEPTYAADFKRRFTFSLDTSKSTAYLQMNSLRAEDTAVYYCAKYPHYYGSSHWYFDVWGQGTLVTVSS VL: DIQMTQSPSSLSASVGDRVTITCRASEDIYSNLAWYQQKPGKAPKLLIYDTNNLADGVPSRFSGSGSGTDFTLTISSLQPEDFATYYCQQYNNYPPTFGQGTKLEIKRTVAAPDIQMTQSPSSLSASVGDRVTITCSASQDISNYLNWYQQKPGKAPKVLIYFTSSLHSGVPSRFSGSGSGTDFTLTISSLQPEDFATYYCQQYSTVPWTFGQGTKVEIK | – | – | – | – | – | 0.6 |
| T 30 F (bispecific antibody, also called SS DLL4-VEGF DVD-Ig variant T30F) VH: EVQLVESGGGLVQPGGSLRLSCAASGFTFSNFPMAWVRQAPGKGLEWVATISSSDGTTYYRDSVKGRFTISRDNAKNSLYLQMNSLRAEDTAVYYCARGYYNSPFAYWGQGTLVTVSSASTKGPEVQLVESGGGLVQPGGSLRLSCAASGYTFFNYGMNWVRQAPGKGLEWVGWINTYTGEPTYAADFKRRFTFSLDTSKSTAYLQMNSLRAEDTAVYYCAKYPHYYGSSHWYFDVWGQGTLVTVSS VL: DIQMTQSPSSLSASVGDRVTITCRASEDIYSNLAWYQQKPGKAPKLLIYDTNNLADGVPSRFSGSGSGTDFTLTISSLQPEDFATYYCQQYNNYPPTFGQGTKLEIKRTVAAPDIQMTQSPSSLSASVGDRVTITCSASQDISNYLNWYQQKPGKAPKVLIYFTSSLHSGVPSRFSGSGSGTDFTLTISSLQPEDFATYYCQQYSTVPWTFGQGTKVEIK | – | – | – | – | – | 0.4 |

Source: patent US20140154255A1 (AbbVie / Abbott, published 2014)
